Patent US20180105585A1

Experiments:
[1] = biological target: Biotinylated human Amyloid beta 1-42 peptide (human); experiment: HTRF epitope competition, purified scFv against Abet0042 IgG (competitor) for biotinylated human Amyloid beta 1-42
[2] = biological target: Biotinylated human Amyloid beta 1-42 peptide (human); experiment: SPR (BIAcore T-100), biotinylated peptide on SA chip, scFv 12.5-400 nM, 1:1 Langmuir

Biotinylated human Amyloid beta 1-42 peptide (human), sequence (peptide, as listed by the source): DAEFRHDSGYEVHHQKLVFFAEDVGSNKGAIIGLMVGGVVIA

Binder | IC50 [1] [nM] | Kd [2] [nM] | koff [2] [s⁻¹] | kon [2] [M⁻¹ s⁻¹]
Abet0007 scFv (scFv, part only; not given: Linker, tags and domain order, V domains shown, not shown: another chain or arm of the molecule; small tags and cut ends) VH: EVQLLESGGGLVQPGGSLRLSCAASGFTFSVYTMWWVRQAPGKGLEWVSVIGSSGGTTVYADSVKGRFTISRDNSKNTLYLQMNSLRAEDTAVYYCAREGQQLVRPYYYYGMDVWGQGTLVTVSS VL: QSVLTQPPSVSVSPGQTASITCSGHNLEDKFASWYQQKSGQSPVLVIYRDDKRPSGIPERFSASNSGHTATLTISGTQATDEADYYCQAQDSTTRVFGGGTKLTVL | 159 | – | – | –
Abet0144 scFv (scFv, part only; not given: Linker, tags and domain order, V domains shown, not shown: another chain or arm of the molecule; small tags and cut ends) VH: EVQLLESGGGLVQPGGSLRLSCAASGFTFSVYTMWWVRQAPGKGLEWVSVIGSSGGTTVYADSVKGRFTISRDNSKNTLYLQMNSLRAEDTAVYYCAREWMDHSRPYYYYGMDVWGQGTLVTVSS VL: QSVLTQPPSVSVSPGQTASITCSGHNLEDKFASWYQQKSGQSPVLVIYRDDKRPSGIPERFSASNSGHTATLTISGTQATDEADYYCQAQDSTTRVFGGGTKLTVL | 5.5 | 33.2 | 0.00666 | 201000
